US20180346588A1 (MOGAM INSTITUTE FOR BIOMEDICAL RESEARCH, published 2018)

target: T1, recombinant human mesothelin (MSLN) (human, UniProt Q13421 296-580, limits assumed); test: SPR, Biacore T-200; MSLN amine-coupled to CM5 chip, IgG in flow
T1 construct: also called human MSLN; recombinant human MSLN
Experimental: Quantitative binding force (affinity) of the purified anti-MSLN antibodies, i.e., the MS502 clone light chain variable region mutation antibodies C2G1, C2G4, and C3C8 with regard to the recombinant human mesothelin (MSLN) was measured by using a Biacore T-200 (GE Healthcare, U.S.A.) biosensor. […] Then, the clone C2G1 antibody, the clone C2G4 antibody or the clone C3C8 antibody serially diluted with HBS-EP buffer (10 mM HEPES, pH7.4, 150 mM NaCl, 3 mM EDTA, 0.005% surfactant P20) was allowed to flow at a concentration range of 0.078 nM to 5 nM and at a flow rate of 30 μL/min for association of 120 seconds and dissociation of 1800 seconds. The dissociation of the antibody bound to the MSLN was induced by flowing 10 mM Glycine-HCl pH 1.5 at a flow rate of 30 μL/min for 30 seconds (Table 13). The affinity was obtained as movement speed constants (Kₒₙ and Koff) and an equilibrium dissociation constant (KD) by using a Biacore T-200 evaluation software (Table 14).

T1 sequence (Q13421 other isoform, or with tags, fused parts or gaps limits assumed): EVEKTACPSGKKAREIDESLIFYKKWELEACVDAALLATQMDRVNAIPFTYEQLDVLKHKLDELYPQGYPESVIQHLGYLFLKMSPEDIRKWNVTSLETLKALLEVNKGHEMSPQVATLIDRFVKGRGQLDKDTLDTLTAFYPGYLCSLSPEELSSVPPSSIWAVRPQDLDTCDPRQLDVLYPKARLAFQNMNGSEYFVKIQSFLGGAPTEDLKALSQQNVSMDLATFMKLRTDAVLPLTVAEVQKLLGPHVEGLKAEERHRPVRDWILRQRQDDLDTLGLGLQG

Row | Kd [nM] | Binder
1 | 0.0939 | clone C2G1 (MS502 light chain variable region mutation antibody) (antibody, V domains shown, SPR done with IgG (human IgG1 heavy constant region)) VH: EVQLLESGGGLVQPGGSLRLSCAASGFTFSNYAMSWVRQAPGKGLEWVSGIPPDSGSKYYADSVRGRFTVSRDNSKNTLYLQMNSLRAEDTAVYYCAKNMLSFDYWGQGTLVTVSS VL: QSVLTQPPSASGTPGQRVTISCTGSSSNIGPNAVSWYQQLPGTAPKLLIYYNSKRPSGVPDRFSGSKSGTSASLAISGLRSEDEADYYCGSWDSSLSGYVFGGGTKVTVLG
2 | 0.0432 | clone C2G4 (MS502 light chain variable region mutation antibody) (antibody, V domains shown, SPR done with IgG (human IgG1 heavy constant region)) VH: EVQLLESGGGLVQPGGSLRLSCAASGFTFSNYAMSWVRQAPGKGLEWVSGIPPDSGSKYYADSVRGRFTVSRDNSKNTLYLQMNSLRAEDTAVYYCAKNMLSFDYWGQGTLVTVSS VL: QSVLTQPPSASGTPGQRVTISCTGSSSNIGSNAVSWYQQLPGTAPKLLIYYNSKRPSGVPDRFSGSKSGTSASLAISGLRSEDEADYYCGSWDPSLNGYVFGGGTKVTVLG
3 | 0.122 | clone C3C8 (MS502 light chain variable region mutation antibody) (antibody, V domains shown, SPR done with IgG (human IgG1 heavy constant region)) VH: EVQLLESGGGLVQPGGSLRLSCAASGFTFSNYAMSWVRQAPGKGLEWVSGIPPDSGSKYYADSVRGRFTVSRDNSKNTLYLQMNSLRAEDTAVYYCAKNMLSFDYWGQGTLVTVSS VL: QSVLTQPPSASGTPGQRVTISCTGSSSNIGPNAVSWYQQLPGTAPKLLIYYNSKRPSGVPDRFSGSKSGTSASLAISGLRSEDEADYYCGSWDSDLRGYVFGGGTKVTVLG
